For the assay, the target named is SARS-CoV-2 spike D614G (pseudovirus) (SARS-CoV-2) (UniProt P0DTC2). Kind of assay: cell-based or functional assay.

We go through 2 substances from patent publication US20230357364A1.

On to REGN10987 (antibody), for which the PSV in HeLa-ACE2 cells IC50 was 0.019 µg/mL. As for REGN10933 (antibody), the figure is 0.009 µg/mL.
